Results: US20090299035A1

Key:
[1] = biological target: Human IgG (Sigma-Aldrich Corporation) (human); assay: Biacore SPR; protein on NTA chip, human IgG injected
[2] = biological target: Human IgG (Sigma-Aldrich Corporation) (human); assay: Biacore SPR; protein on NTA chip, human IgG injected; reference repeated from Table 2
[3] = biological target: Human IgG (Sigma-Aldrich Corporation) (human); assay: Biacore SPR; protein on NTA chip, human IgG injected; reference repeated from Table 3
[4] = biological target: Human IgG (Sigma-Aldrich Corporation) (human); assay: human IgG captured on the protein-immobilized Amino-Cellulofine carrier, released with 0.1 M acetic acid, A280

B1: pPG (SEQ ID NO: 2) (designed binder)
chain: AYRLILNGRTLRGETTTEAVDAATAERVFRQYANDNGVDGEWTYDDATRTFTVTERPEVIDASELTPAVTGGGGCADDDDDDHHHHHH
B1 showed a Kd [1] of 0.384 nM, a koff [1] of 0.000154 s⁻¹ and a kon [1] of 401000 M⁻¹ s⁻¹. The Kd [2] was 0.384 nM, the koff [2] was 0.000154 s⁻¹ and the kon [2] was 401000 M⁻¹ s⁻¹.

B2: pPL (SEQ ID NO: 3) (designed binder)
chain: ATIRANLIYADGRTQTAEFRGTFEEATAEAYRYADLLARENGRYTVDVADRGYTLNIRFAGGGGGCADDDDDDHHHHHH
Work on B2 yielded a Kd [1] of 2.06 nM, a koff [1] of 0.000312 s⁻¹ and a kon [1] of 151000 M⁻¹ s⁻¹. For the same binder, the Kd [3] was 2.06 nM, the koff [3] was 0.000312 s⁻¹ and the kon [3] was 151000 M⁻¹ s⁻¹.

B3: Immobilization carrier SEQ ID NO: 5 (←SEQ ID NO: 2) (designed binder)
chain: AYRLILNGRTLRGETTTEAVDAATAERVFRQYANDNGVDGEWTYDDATRTFTVTERPEVIDASELTPAVTGGGG
modifications: carboxy terminus bound to a primary amino group on Amino-Cellulofine via an amide bond
For B3, the Amount of bound human IgG (mg/ml carrier) [4] was 10.

B4: Immobilization carrier SEQ ID NO: 6 (←SEQ ID NO: 3) (designed binder)
chain: ATIRANLIYADGRTQTAEFRGTFEEATAEAYRYADLLARENGRYTVDVADRGYTLNIRFAGGGGG
modifications: carboxy terminus bound to a primary amino group on Amino-Cellulofine via an amide bond
Binder B4 has an Amount of bound human IgG (mg/ml carrier) [4] of 3.

B5: Protein expressed from pGG3T (SEQ ID NO: 25 repeated three times, n = 3) (designed binder)
chain: AYRLILNGRTLRGETTTEAVDAATAERVFRQYANDNGVDGEWTYDDATRTFTVTERPEVIDASELTPAVTPGAYRLILNGRTLRGETTTEAVDAATAERVFRQYANDNGVDGEWTYDDATRTFTVTERPEVIDASELTPAVTPGAYRLILNGRTLRGETTTEAVDAATAERVFRQYANDNGVDGEWTYDDATRTFTVTERPEVIDASELTPAVTPGGGGGCADDDDDDHHHHHH
With B5 the Kd [1] was 0.068 nM, the koff [1] was 7.63e-05 s⁻¹ and the kon [1] was 1.12e+06 M⁻¹ s⁻¹.

B6: Protein expressed from pLL3T (SEQ ID NO: 26 repeated three times, n = 3) (designed binder)
chain: ATIRANLIYADGRTQTAEFRGTFEEATAEAYRYADLLARENGRYTVDVADRGYTLNIRFAPGATIRANLIYADGRTQTAEFRGTFEEATAEAYRYADLLARENGRYTVDVADRGYTLNIRFAPGATIRANLIYADGRTQTAEFRGTFEEATAEAYRYADLLARENGRYTVDVADRGYTLNIRFAPGGGGGCADDDDDDHHHHHH
B6 was tested, and the Kd [1] was 0.788 nM, the koff [1] was 0.000237 s⁻¹ and the kon [1] was 301000 M⁻¹ s⁻¹.
